Assay results taken from publication PMC9709061.

Biological target: HSP90–CDC37–BRAF^V600E complex (human) (UniProt P08238)
Assay: cryo-EM structure; HSP90–CDC37–BRAF^V600E complex incubated with PP5 D274N, purified by SEC, cross-linked with 1 mM BS3; one sample gave three classes: HCK (3.4 Å), HCK-P open (4.2 Å), HCK-P closed (3.9 Å); PP5 modelled by rigid-body docking

HSP90–CDC37–BRAF^V600E complex (human), sequence (P08238 whole entry, chain 1 of 3): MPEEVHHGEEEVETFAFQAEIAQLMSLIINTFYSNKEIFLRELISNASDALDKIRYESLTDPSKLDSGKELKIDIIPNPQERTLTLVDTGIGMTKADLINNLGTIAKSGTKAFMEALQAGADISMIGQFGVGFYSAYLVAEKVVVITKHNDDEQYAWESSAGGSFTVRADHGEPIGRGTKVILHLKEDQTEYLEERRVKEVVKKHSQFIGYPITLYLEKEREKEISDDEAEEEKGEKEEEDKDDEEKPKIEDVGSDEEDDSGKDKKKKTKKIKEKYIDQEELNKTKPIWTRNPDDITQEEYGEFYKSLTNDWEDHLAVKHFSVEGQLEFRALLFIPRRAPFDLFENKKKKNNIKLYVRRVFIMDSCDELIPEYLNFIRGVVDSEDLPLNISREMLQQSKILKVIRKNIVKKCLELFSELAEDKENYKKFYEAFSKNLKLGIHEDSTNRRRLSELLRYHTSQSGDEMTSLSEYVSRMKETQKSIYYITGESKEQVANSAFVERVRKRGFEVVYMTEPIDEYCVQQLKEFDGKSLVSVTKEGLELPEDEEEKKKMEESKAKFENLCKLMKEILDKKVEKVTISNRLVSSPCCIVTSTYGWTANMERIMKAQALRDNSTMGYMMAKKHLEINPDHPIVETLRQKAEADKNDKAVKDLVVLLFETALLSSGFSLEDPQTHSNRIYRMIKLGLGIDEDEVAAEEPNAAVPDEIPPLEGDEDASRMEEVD
HSP90–CDC37–BRAF^V600E complex (human), sequence (Q16543 whole entry, chain 2 of 3, further chain): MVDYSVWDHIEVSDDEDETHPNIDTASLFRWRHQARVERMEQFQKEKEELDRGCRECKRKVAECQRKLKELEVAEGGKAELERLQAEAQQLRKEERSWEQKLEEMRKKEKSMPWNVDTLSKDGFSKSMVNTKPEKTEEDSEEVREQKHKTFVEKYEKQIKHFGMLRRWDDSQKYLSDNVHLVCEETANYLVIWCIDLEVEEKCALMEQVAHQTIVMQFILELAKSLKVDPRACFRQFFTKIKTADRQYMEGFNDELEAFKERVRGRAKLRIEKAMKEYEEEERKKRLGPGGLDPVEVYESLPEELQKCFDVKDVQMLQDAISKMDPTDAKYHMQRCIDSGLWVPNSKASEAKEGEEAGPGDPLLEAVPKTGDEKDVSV
HSP90–CDC37–BRAF^V600E complex (human), sequence (P15056 whole entry V600E, chain 3 of 3, further chain): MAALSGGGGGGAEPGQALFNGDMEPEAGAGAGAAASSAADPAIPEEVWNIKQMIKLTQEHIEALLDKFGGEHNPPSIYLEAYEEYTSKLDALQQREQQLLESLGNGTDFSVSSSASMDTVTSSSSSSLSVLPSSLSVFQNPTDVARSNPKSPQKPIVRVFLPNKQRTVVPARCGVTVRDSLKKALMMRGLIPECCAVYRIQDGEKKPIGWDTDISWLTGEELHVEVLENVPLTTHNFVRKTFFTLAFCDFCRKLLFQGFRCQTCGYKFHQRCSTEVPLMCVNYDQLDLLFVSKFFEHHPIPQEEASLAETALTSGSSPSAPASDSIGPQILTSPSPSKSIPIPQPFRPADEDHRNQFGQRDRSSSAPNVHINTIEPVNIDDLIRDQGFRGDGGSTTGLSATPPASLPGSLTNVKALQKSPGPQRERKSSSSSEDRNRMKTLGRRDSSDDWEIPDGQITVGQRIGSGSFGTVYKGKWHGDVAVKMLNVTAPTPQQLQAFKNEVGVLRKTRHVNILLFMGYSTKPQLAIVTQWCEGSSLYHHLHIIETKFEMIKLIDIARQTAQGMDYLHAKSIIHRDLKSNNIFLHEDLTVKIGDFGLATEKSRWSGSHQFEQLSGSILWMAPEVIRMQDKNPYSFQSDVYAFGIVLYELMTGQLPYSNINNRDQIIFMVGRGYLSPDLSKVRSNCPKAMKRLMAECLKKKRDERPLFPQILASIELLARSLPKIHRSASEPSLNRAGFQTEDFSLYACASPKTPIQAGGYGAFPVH

- stoichiometry N: 1
B1: PP5 D274N (enzyme)
chain: RDEPPADGALKRAEELKTQANDYFKAKDYENAIKFYSQAIELNPSNAIYYGNRSLAYLRTECYGYALGDATRAIELDKKYIKGYYRRAASNMALGKFRAALRDYETVVKVKPHDKDAKMKYQECNKIVKQKAFERAIAGDEHKRSVVDSLDIESMTIEDEYSGPKLEDGKVTISFMKELMQWYKDQKKLHRKCAYQILVQVKEVLSKLSTLVETTLKETEKITVCGDTHGQFYDLLNIFELNGLPSETNPYIFNGDFVNRGSFSVEVILTLFGFKLLYPDHFHLLRGNHETDNMNQIYGFEGEVKAKYTAQMYELFSEVFEWLPLAQCINGKVLIMHGGLFSEDGVTLDDIRKIERNRQPPDSGPMCDLLWSDPQPQNGRSISKRGVSCQFGPDVTKAFLEENNLDYIIRSHEVKAEGYEVAHGGRCVTVFSAPNYCDQMGNKASYIHLQGSDLRPQFHQFTAVPHPNVKPMAYANTLLQLGMM
